Target: the molecule itself
Experiment: AUC; sedimentation velocity, absorbance optics, 20 mM Tris-HCl pH 8.0, 100 mM NaCl, 2 mM DTT, 20 °C, c(s) model in Sedfit

B1: sNlpI (soluble NlpI without its lipoprotein signal peptide) (natural protein, E. coli, UniProt P0AFB1 20-294, looked up)
chain: SNTSWRKSEVLAVPLQPTLQQEVILARMEQILASRALTDDERAQLLYERGVLYDSLGLRALARNDFSQALAIRPDMPEVFNYLGIYLTQAGNFDAAYEAFDSVLELDPTYNYAHLNRGIALYYGGRDKLAQDDLLAFYQDDPNDPFRSLWLYLAEQKLDEKQAKEVLKQHFEKSDKEQWGWNIVEFYLGNISEQTLMERLKADATDNTSLAEHLSETNFYLGKYYLSLGDLDSATALFKLAVANNVHNFVEHRYALLELSLLGQDQDDLAESDQQ
notes: NlpI, E. coli outer-membrane lipoprotein with four tetratricopeptide repeats, residues S20-Q294, without the lipoprotein signal peptide; Homodimer by AUC and in the crystal. pET28a vector with N-terminal His-tag; no removal of the tag is described; also called WT-NlpI; wild-type sNlpI; source: E. coli BL21(DE3), purified (Ni-NTA, MonoQ, Superdex 200); cleared cell lysate in the pull-down; not …
  stoichiometry N: 2

B2: sNlpI-R82E (natural protein, E. coli, UniProt P0AFB1 20-294, looked up)
chain: SNTSWRKSEVLAVPLQPTLQQEVILARMEQILASRALTDDERAQLLYERGVLYDSLGLRALAENDFSQALAIRPDMPEVFNYLGIYLTQAGNFDAAYEAFDSVLELDPTYNYAHLNRGIALYYGGRDKLAQDDLLAFYQDDPNDPFRSLWLYLAEQKLDEKQAKEVLKQHFEKSDKEQWGWNIVEFYLGNISEQTLMERLKADATDNTSLAEHLSETNFYLGKYYLSLGDLDSATALFKLAVANNVHNFVEHRYALLELSLLGQDQDDLAESDQQ
notes: NlpI, E. coli, residues S20-Q294 without the signal peptide, R82E in helix TPR1b; source: E. coli BL21(DE3), purified (Ni-NTA, MonoQ, Superdex 200)
  stoichiometry N: 2

B3: sNlpI-L38C (natural protein, E. coli, UniProt P0AFB1 20-294, looked up)
chain: SNTSWRKSEVLAVPLQPTCQQEVILARMEQILASRALTDDERAQLLYERGVLYDSLGLRALARNDFSQALAIRPDMPEVFNYLGIYLTQAGNFDAAYEAFDSVLELDPTYNYAHLNRGIALYYGGRDKLAQDDLLAFYQDDPNDPFRSLWLYLAEQKLDEKQAKEVLKQHFEKSDKEQWGWNIVEFYLGNISEQTLMERLKADATDNTSLAEHLSETNFYLGKYYLSLGDLDSATALFKLAVANNVHNFVEHRYALLELSLLGQDQDDLAESDQQ
notes: NlpI, E. coli, residues S20-Q294 without the signal peptide, L38C in helix h1; source: E. coli BL21(DE3), purified (Ni-NTA, MonoQ, Superdex 200)
  stoichiometry N: 2

B4: sNlpI-L38A (natural protein, E. coli, UniProt P0AFB1 20-294, looked up)
chain: SNTSWRKSEVLAVPLQPTAQQEVILARMEQILASRALTDDERAQLLYERGVLYDSLGLRALARNDFSQALAIRPDMPEVFNYLGIYLTQAGNFDAAYEAFDSVLELDPTYNYAHLNRGIALYYGGRDKLAQDDLLAFYQDDPNDPFRSLWLYLAEQKLDEKQAKEVLKQHFEKSDKEQWGWNIVEFYLGNISEQTLMERLKADATDNTSLAEHLSETNFYLGKYYLSLGDLDSATALFKLAVANNVHNFVEHRYALLELSLLGQDQDDLAESDQQ
notes: NlpI, E. coli, residues S20-Q294 without the signal peptide, L38A in helix h1; source: E. coli BL21(DE3), purified (Ni-NTA, MonoQ, Superdex 200)
  stoichiometry N: 2

— paper PMC5686067, “Structural basis of adaptor-mediated protein degradation by the tail-specific PDZ-protease Prc” (Nature Communications, 2017)
